Patent US20130058934A1 (Novartis, published 2013)

T1: LRP6-Fc (R&D Systems, catalog No: 1505-LR) (human, UniProt O75581 20-1370)
T1 construct: Purchased reagent; also called LRP6 protein; 360 KD homodimer antigen LRP6-Fc; not shown: Fc part of the purchased fusion
T1 sequence (looked up): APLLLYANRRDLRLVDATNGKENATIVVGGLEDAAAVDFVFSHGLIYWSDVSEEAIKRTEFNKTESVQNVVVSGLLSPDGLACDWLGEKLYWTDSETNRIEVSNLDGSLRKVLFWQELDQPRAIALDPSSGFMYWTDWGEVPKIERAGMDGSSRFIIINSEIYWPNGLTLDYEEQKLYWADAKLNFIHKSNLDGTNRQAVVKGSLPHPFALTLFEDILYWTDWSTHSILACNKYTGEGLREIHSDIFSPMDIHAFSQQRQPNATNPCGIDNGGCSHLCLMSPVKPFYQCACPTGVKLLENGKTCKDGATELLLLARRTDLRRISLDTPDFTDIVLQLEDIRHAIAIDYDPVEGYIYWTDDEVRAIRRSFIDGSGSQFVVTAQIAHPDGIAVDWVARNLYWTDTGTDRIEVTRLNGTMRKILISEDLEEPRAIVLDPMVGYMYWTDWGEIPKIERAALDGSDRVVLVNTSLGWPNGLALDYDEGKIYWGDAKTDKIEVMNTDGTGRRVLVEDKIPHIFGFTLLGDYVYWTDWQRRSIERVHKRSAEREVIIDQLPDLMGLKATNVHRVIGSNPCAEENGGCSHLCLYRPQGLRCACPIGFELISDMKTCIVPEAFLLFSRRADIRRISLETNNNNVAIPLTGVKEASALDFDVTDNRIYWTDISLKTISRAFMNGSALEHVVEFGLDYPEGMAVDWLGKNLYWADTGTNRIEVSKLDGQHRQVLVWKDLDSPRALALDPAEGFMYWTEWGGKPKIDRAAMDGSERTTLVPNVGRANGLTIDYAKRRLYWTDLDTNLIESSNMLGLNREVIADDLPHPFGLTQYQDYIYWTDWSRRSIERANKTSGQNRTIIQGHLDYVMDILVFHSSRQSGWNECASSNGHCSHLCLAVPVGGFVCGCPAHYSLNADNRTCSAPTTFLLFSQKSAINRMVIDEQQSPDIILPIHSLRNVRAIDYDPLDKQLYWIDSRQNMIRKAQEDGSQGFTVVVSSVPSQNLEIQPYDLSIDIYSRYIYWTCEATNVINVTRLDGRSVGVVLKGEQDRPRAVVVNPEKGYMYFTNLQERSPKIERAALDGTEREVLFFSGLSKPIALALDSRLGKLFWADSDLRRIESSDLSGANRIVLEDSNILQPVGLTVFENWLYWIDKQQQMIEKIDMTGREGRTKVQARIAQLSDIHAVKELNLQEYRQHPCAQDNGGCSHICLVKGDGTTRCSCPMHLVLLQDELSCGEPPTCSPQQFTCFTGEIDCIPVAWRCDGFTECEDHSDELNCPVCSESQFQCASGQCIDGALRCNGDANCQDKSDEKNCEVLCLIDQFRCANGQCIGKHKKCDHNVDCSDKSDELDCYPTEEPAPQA

T2: LRP6 PD3/4 (human, UniProt O75581 631-1246)
T2 construct: range 631-1246; Recombinant soluble fragment; also called Propeller Domains 3-4 of LRP6; recombinant LRP6 PD3/4
T2 sequence (looked up): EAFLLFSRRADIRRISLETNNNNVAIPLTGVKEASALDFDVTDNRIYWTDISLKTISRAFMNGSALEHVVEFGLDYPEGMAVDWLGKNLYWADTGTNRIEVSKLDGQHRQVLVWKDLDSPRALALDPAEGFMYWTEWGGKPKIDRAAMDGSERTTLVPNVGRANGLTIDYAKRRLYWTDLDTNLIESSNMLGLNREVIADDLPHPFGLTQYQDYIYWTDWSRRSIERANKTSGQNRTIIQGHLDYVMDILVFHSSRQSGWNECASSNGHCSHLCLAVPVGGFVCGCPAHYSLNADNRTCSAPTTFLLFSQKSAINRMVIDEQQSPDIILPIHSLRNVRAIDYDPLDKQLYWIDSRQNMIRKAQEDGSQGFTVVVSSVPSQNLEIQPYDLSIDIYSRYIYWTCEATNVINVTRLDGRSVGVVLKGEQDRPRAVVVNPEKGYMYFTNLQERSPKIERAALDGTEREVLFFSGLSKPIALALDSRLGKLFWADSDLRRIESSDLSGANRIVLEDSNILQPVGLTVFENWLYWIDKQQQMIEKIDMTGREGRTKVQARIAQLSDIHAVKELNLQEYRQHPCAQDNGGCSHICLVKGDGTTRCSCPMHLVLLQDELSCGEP


Assays:
human LRP6 = human LRP6 (human, UniProt O75581 20-1613); test: cell-based or functional assay
[1] = molecular target: T1, LRP6-Fc (R&D Systems, catalog No: …); test: ELISA on coated LRP6-Fc, detection with pentaHis-HRP
Method: (§1) Binding EC₅₀ of scFvs against LRP6 protein was measured by ELISA. Maxisorp plate was coated with LRP6-Fc (R&D Systems, catalog No: 1505-LR) at 3 μg/ml at 4° C. overnight. The plate was blocked with 50 μl of 2% BSA for one hour, and washed five times with the wash solution. The samples were diluted with 1% BSA accordingly. The plate was incubated at RT for 1 h, and washed for 3 times. Detection was done by adding 50 μl pentaHis-HRP (Qiagen Mat. No. 1014992) at 1:2000 dilution in 1% BSA, incubated at RT for 1 h, and washed 3 times. 50 μl of substrate reagent A plus B (R&D systems) was added, then incubated for 5-20 min depending on the color. The reaction was stopped by adding 25 μl of the stop solution, followed by plate reading at 450 nm.
Affinity analysis ELISA EC₅₀ was carried out for both scFv08168 and scFv06475 wild type and variants.

[2] = molecular target: T1, LRP6-Fc (R&D Systems, catalog No: …); test: Proteon XPR36, scFv captured by anti-His IgG, LRP6-Fc as analyte, bivalent analyte model
Method: Kinetics experiments were performed using BioRad's Proteon XPR36 biosensor. All experiments were performed at room temperature using PBST (phosphate buffered saline with 0.05% Tween-20) as the running buffer. All of the six vertical channels on a GLM chip were activated for 5 min at a flow rate of 30 μl/min using freshly prepared mixture of EDC (400 mM) and sNHS (100 mM). Anti-His mouse IgG1 (R&D systems, catalog No: MAB050) was diluted to 20 μg/ml in 10 mM sodium acetate, PH 5.0 and coupled to the chip for 5 min along separate vertical channels at a flow rate of 30 μl/min. 1 M ethanolamine was then injected for 5 min at 30 μl/min to deactivate the un-reacted sNHS groups. 2 μg/ml MOR08168 scFv wild type or 2 μg/ml MOR08168D1 mutant was then immobilized on different vertical channels for 15 sec at 100 μl/min followed by two 1 min injection of the running buffer at 30 μl/min in the horizontal direction. The sixth vertical channel was used as the channel reference and no ligand was immobilized on this channel. […] Association was monitored for 5 min and dissociation was monitored for 20 min. Buffer was injected in the sixth channel to serve as a row reference for real time baseline drifting correction. […] Kinetics analysis on the Proteon was performed in Proteon Manager v.2.1.1. […]

[3] = molecular target: T1, LRP6-Fc (R&D Systems, catalog No: …); test: ELISA on coated LRP6-Fc, pentaHis-HRP detection
Method: as §1
For scFv06475, there were two mutations affecting the activity as detected by ELISA and Proteon kinetics analysis.

LRP6 PD3/4 = molecular target: T2, LRP6 PD3/4; test: Biacore T-100 SPR, antibody captured by anti-human IgG Fc on a CM4 chip, PD3/4 injected; N = 3
Method: The carboxymethyl dextran surface was activated with a 7 min injection of a 1:1 ratio of 0.4 M EDC (1-Ethyl-3-[3-dimethylaminopropyl]carbodiimide hydrochloride) and 0.1 M NHS(N-hydroxysuccinimide). […] PD1/2 and PD3/4 were prepared as two fold concentration series starting at 50 nM, and injected at 30 μl/min for 1 min. […] The surfaces were then regenerated two times with 10 mM glycine (pH 2.2). […] PD3/4 at a saturating concentration of 100 nM was then flowed over the surface at a flow rate of 30 μl/min for 30 min. A saturating concentration of 100 nM PD1/2 was injected immediately after the PD3/4. The dissociation constant (KD), association (kₒₙ), and dissociation (koff) rates were calculated from the baseline subtracted corrected binding curves using the BIAevaluation software (GE Healthcare).

cynoFcRn = molecular target: T3, cynoFcRn (cynomolgus monkey, UniProt Q8SPV9); test: Biacore, cynoFcRn at pH 6.0
T3 construct: also called cynomolgus FcRn

human FcRn = human FcRn (human, UniProt P55899 24-297; P61769 21-119, limits assumed); test: Biacore, pH 6.0; human FcRn at pH 6.0, Biacore; IgG-scFv format (only low level binding at pH 7.4)

Binder | EC50 [1] | Kd [2] | EC50 [3] | further results
scFv08168 wild type (scFv, V domains shown, One polypeptide (scFv with His tag); also called MOR08168 scFv wild type) VH: QVQLVESGGGLVQPGGSLRLSCAASGFTFSDYVINWVRQAPGKGLEWVSGISWSGVNTHYADSVKGRFTISRDNSKNTLYLQMNSLRAEDTAVYYCARLGATANNIRYKFMDVWGQGTLVTVSS VL: DIELTQPPSVSVAPGQTARISCSGDSLRNKVYWYQQKPGQAPVLVIYKNNRPSGIPERFSGSNSGNTATLTISGTQAEDEADYYCQSYDGQKSLVFGGGTKLTVL | 2.04 nM | 3.82 nM | – | IC50 by STF assay for Wnt1 inhibition (human LRP6): 7.41 nM
scFv06475 VH:I37F (scFv, name in Kabat numbering, V domains shown, Point mutant of scFv06475 (His tag)) VH: QVQLKESGPALVKPTQTLTLTCTFSGFSLSNRGGGVGWFRQPPGKALEWLAWIDWDDDKSYSTSLKTRLTISKDTSKNQVVLTMTNMDPVDTATYYCARMHLPLVFDSWGQGTLVTVSS VL: DIVLTQSPATLSLSPGERATLSCRASQFIGSRYLAWYQQKPGQAPRLLIYGASNRATGVPARFSGSGSGTDFTLTISSLEPEDFATYYCQQYYDYPQTFGQGTKVEIK | – | – | 4.3 nM | –
anti-LRP6 MOR08168hIgG1LALA 6475 scfv (bispecific antibody, Biparatopic: MOR08168 IgG1 LALA with MOR06475 scFv (VL-(Gly4Ser)4-VH) fused by a (GlyGlySer)2 linker to the C-terminus of CH3; also called Biparatopic anti-LRP6 IgG scFv) heavy: not shown light: DIELTQPPSVSVAPGQTARISCSGDSLRNKVYWYQQKPGQAPVLVIYKNNRPSGIPERFSGSNSGNTATLTISGTQAEDEADYYCQSYDGQKSLVFGGGTKLTVLGQPKAAPSVTLFPPSSEELQANKATLVCLISDFYPGAVTVAWKADSSPVKAGVETTTPSKQSNNKYAASSYLSLTPEQWKSHRSYSCQVTHEGSTVEKTVAPTECS | – | – | – | Kd (LRP6 PD3/4): 1.93 nM; koff (LRP6 PD3/4): 0.000314 s⁻¹; kon (LRP6 PD3/4): 211000 M⁻¹ s⁻¹; Kd (cynoFcRn): 120 nM; Kd (human FcRn): 21 nM

Further lines, with some results ahead:

EC50 [1] | Kd [2] | EC50 [3] | Binder | further results
1.61 nM | 2.55 nM | – | scFv08168 D1 (VH:I34M + VH:S49A) (scFv, V domains shown, Double mutant of scFv08168 (His tag); also called MOR08168D1 mutant; double mutant D1) VH: QVQLVESGGGLVQPGGSLRLSCAASGFTFSDYVMNWVRQAPGKGLEWVAGISWSGVNTHYADSVKGRFTISRDNSKNTLYLQMNSLRAEDTAVYYCARLGATANNIRYKFMDVWGQGTLVTVSS VL: DIELTQPPSVSVAPGQTARISCSGDSLRNKVYWYQQKPGQAPVLVIYKNNRPSGIPERFSGSNSGNTATLTISGTQAEDEADYYCQSYDGQKSLVFGGGTKLTVL | –
27.4 nM | – | 27 nM | scFv06475 VH:G34V (scFv, name in Kabat numbering, V domains shown, Point mutant of scFv06475 (His tag)) VH: QVQLKESGPALVKPTQTLTLTCTFSGFSLSNRGVGVGWIRQPPGKALEWLAWIDWDDDKSYSTSLKTRLTISKDTSKNQVVLTMTNMDPVDTATYYCARMHLPLVFDSWGQGTLVTVSS VL: DIVLTQSPATLSLSPGERATLSCRASQFIGSRYLAWYQQKPGQAPRLLIYGASNRATGVPARFSGSGSGTDFTLTISSLEPEDFATYYCQQYYDYPQTFGQGTKVEIK | –
